The text below walks through data of PMC8173049 (2021).

For this test, the target named is HAdV-D26 capsid (replication-defective, E1-deleted vector particle with a GFP-luciferase fusion expression … (human adenovirus D26)). Kind of test: SPR.

B1: human lactoferrin (natural protein)
chain: GRRRSVQWCAVSQPEATKCFQWQRNMRKVRGPPVSCIKRDSPIQCIQAIAENRADAVTLDGGFIYEAGLAPYKLRPVAAEVYGTERQPRTHYYAVAVVKKGGSFQLNELQGLKSCHTGLRRTAGWNVPIGTLRPFLNWTGPPEPIEAAVARFFSASCVPGADKGQFPNLCRLCAGTGENKCAFSSQEPYFSYSGAFKCLRDGAGDVAFIRESTVFEDLSDEAERDEYELLCPDNTRKPVDKFKDCHLARVPSHAVVARSVNGKEDAIWNLLRQAQEKFGKDKSPKFQLFGSPSGQKDLLFKDSAIGFSRVPPRIDSGLYLGSGYFTAIQNLRKSEEEVAARRARVVWCAVGEQELRKCNQWSGLSEGSVTCSSASTTEDCIALVLKGEADAMSLDGGYVYTAGKCGLVPVLAENYKSQQSSDPDPNCVDRPVEGYLAVAVVRRSDTSLTWNSVKGKKSCHTAVDRTAGWNIPMGLLFNQTGSCKFDEYFSQSCAPGSDPRSNLCALCIGDEQGENKCVPNSNERYYGYTGAFRCLAENAGDVAFVKDVTVLQNTDGNNNEAWAKDLKLADFALLCLDGKRKPVTEARSCHLAMAPNHAVVSRMDKVERLKQVLLHQQAKFGRNGSDCPDKFCLFQSETKNLLFNDNTECLARLHGKTTYEKYLGPQYVAGITNLKKCSTSPLLEACEFLRK
B1 gave a Kd of 2550 nM. In other words, the single-digit micromolar range.
